Tests used:
[1] = biological target: 37/67 laminin receptor (LR) (Homo sapiens (Human)) (UniProt P08865); experiment: cell-based or functional assay
[2] = biological target: 37/67 laminin receptor (LR) (Homo sapiens (Human)) (UniProt P08865); experiment: adhesion of construct-labeled latex microspheres to fixed TNF-activated RBCEC6 cells
[3] = biological target: native CbpA of S. pneumoniae Tigr4 / T4R (on bacteria or in pneumococcal lysate) (Streptococcus pneumoniae Tigr4 strain); experiment: cell-based or functional assay
[4] = biological target: 37/67 laminin receptor (LR) (Homo sapiens (Human)) (UniProt P08865); experiment: adhesion of labeled latex microspheres to RBCEC6 cells
[5] = biological target: full length CbpA (CbpA-NR12) (Streptococcus pneumoniae Tigr4 strain); experiment: competitive inhibition of rCbpA-coated latex beads binding to activated RBCEC6 cells by the LR peptide

“CbpA P393G (as printed) expressed on a CbpA- S. pneumoniae strain” gave an adherence to endothelial cells of a CbpA- strain expressing the mutant, less than wild type CbpA [1] of 39 % less.
With CbpA-R1 the bead adherence to RBCEC6 cells, % (compared with full length CbpA-NR12 beads) [2] was 10%.
In the case of “LMWWML palindromic sequence within the 161-180 laminin-binding domain (peptide)”, the bacterial adhesion to activated RBCEC6 cells, % of control [3] is reported as 108 % of control.
Substance full length CbpA (CbpA-NR12) has a fold binding over control thioredoxin labeled beads [4] of 20 fold.
Work on “native CbpA of S. pneumoniae Tigr4 / T4R (on bacteria or in pneumococcal lysate)” yielded a pneumococcal (T4R) adherence to activated RBCEC6 cells, inhibited by anti-LRP r711 [1] of 54%, a pneumococcal (T4R) adherence to activated RBCEC6 cells, inhibited by laminin [1] of 47% and a pneumococcal (T4R) invasion of activated RBCEC6 cells, inhibited by anti-LRP r711 [1] of 31%. For the same substance, the pneumococcal (T4R) invasion of activated RBCEC6 cells, inhibited by laminin [1] was 36%.
In the case of “peptide corresponding to amino acids 161-180 of the laminin receptor”, the adhesion of rCbpA-coated latex beads, % of control [5] is reported as 93 % of control.
“peptide corresponding to amino acids 263-282 of the laminin receptor” was tested, and the adherence of rCbpA-coated latex beads, % of control [5] was 38 % of control.

Source: US20140248303A1
